This series is described as follows: soluble on expression in E. coli; label from the status in PepcDB or PDB records.
With “MGVCFSAIRVTGASSSRRSSQTKSKAAPTPIDTKASTKRRTGSIPCGKRTDFGYSKDFHDHYTIGKLLGHGQFGYTYVAIHRPNGDRVAVKRLDKSKMVLPIAVEDVKREVQILIALSGHENVVQFHNAFEDDDYVYIVMELCEGGELLDRILSKKGNRYSEKDAAVVVRQMLKVAGECHLHGLVHRDMKPENFLFKSAQLDSPLKATDFGLSDFIKPGKRFHDIVGSAYYVAPEVLKRRSGPESDVWSIGVITYILLCGRRPFWDRTEDGIFKEVLRNKPDFSRKPWATISDSAKDFVKKLLVKDPRARLTAAQALSHAWVREGGNATDIPVDISVLNNLRQFVRYSRLKQFALRALASTLDEAEISDLRDQFDAIDVDKNGVISLEEMRQALAKDLPWKLKDSRVAEILEAIDSNTDGLVDFTEFVAAALHVHQLEEHDSEKWQLRSRAAFEKFDLDKDGYITPEELRMHTGLRGSIDPLLDEADIDRDGKISLHEFRRLLRTASISSQRAPSPAGHRNLR”, the “soluble on expression in E. coli” value is “soluble”.

Turning to “MAHHHHHHMTELLSAGEVQHPCGWAFAFPFVKRVPPAKLVRLLGTATLLDRIRENDPTLRSVRLDYELLPREEIMQALLGNNTISSVVIARVIPRNSTGTDFARFLESLYHLPLRSVQVQDGEKLPSSYLNHLLYLVEYCSGVGKACKWTDGKCYAGADLNTGNTTTEINDAEEFNGNNSREDVDSEVLDYKRGAVLEFVDFSGCRLTVRQAQWLGDILFHRRCTLRHVNACECRLGNGGVRALLRRVNTSPRLKAASIAEGSVVPLDMIELRWNGVTEDESIRNFVDVVERSPDCWTCMTVYGNYISPHMYTRCEAQVVKAKRLMEEERLKRREIPTNVEVAQPDGRLSSEKGTSCSPRRYFVDLLTSVAGEVDFVCPSLRAVSSLLHEEP”, the “soluble on expression in E. coli” value was “not soluble”.

For “MPQLSPWQHYQKDLTRDGFSHDPAQEIAVKALQRVYEDLTAAEEPNSLFGKLFTSFGLTSAPAPTKGLYLWGGVGRGKTYLMDTFFDTLPGNQKLRAHFHRFMHQLHLDLDALKGTRDPLLVIAKQMAAKYRVICFDEFFVSDITDAMLLGTLFQALFKEGVVLVATSNIIPDDLYKNGLQRARFLPAIALINQHCEVLNVDSGIDYRLRTLEQAEIYHHPLDEQADTNLLRYFGQLAPEAEISTEAIEIEGRAISIRQQAQGVLLADFRALCDGPRSQRDYMELARIYHTVLVSGIEQMGAFLTGDDIARRFLAMVDEFYERNVKLIVSAQVPLEDIYADGLLSFEFRRCRSRLIEMQSHDYLKSEHLPAAALEHHHHHH”, the “soluble on expression in E. coli” value is on record as “soluble”.

Consider “MSLKKLILTTAALALSAGMAMADTVRMGTEGAYPPYNFINDAGEVDGFERELGDELCKRAGLTCEWVKNDWDSIIPNLVSGNYDTIIAGMSITDERDEVIDFTQNYIPPTASSYVATSDGADLSGIVAAQTATIQAGYIAESGATLVEFATPEETIAAVRNGEADAVFADRDYLVPIVAESGGELMFVGDDVPLGGGVGMGLRESDGELRGKFDAAITSMKEDGTLNTMIKKWFGEDAAVYEEGHHHHHH”, for which the “soluble on expression in E. coli” value is “soluble”.

In the case of “MKHHHHHHQGKITLYEDRGFQGRHYECSSDHTNLQPYLSRCNSARVDSGCWMLYEQPNYSGLQYFLRRGDYADHQQWMGLSDSVRSCRLIPHSGSHRIRLYEREDYRGQMIEFTEDCSCLQDRFRFNEIHSLNVLEGSWVLYELSNYRGRQYLLMPGDYRRYQDWGATNARVGSLRRVIDFS”, the “soluble on expression in E. coli” value was “soluble”.

Consider “HHHHHHSVFEDDLPFLEFTGSIVYSYDASDCSFLSEDISMSLSDGDVVGFDMEWPPLYNRGKLGKVALIQLCVSESKCYLFHVSSMSVFPQGLKMLLENKAVKKAGVGIEGDQWKLLRDFDIKLKNFVELTDVANKKLKCTETWSLNSLVKHLLGKQLLKDKSIRCSNWSKFPLTEDQKLYAATDAYAGFIIYRNLEILDDTVQR”, for which the “soluble on expression in E. coli” value is given as “soluble”.

Turning to “MGSDKIHHHHHHMLERRDKEITDLKRRVANMVVVGKISHVDHKNARYRVKTGNLVSDWIPDTQARAGKTRSYEGRDVGEQVVVVSSSGDLSQGVIVGSIHTDANQAADKGNLHKTLYPDGTTIEYDDEQNSYALHLTSGGKFSLTISDGVSIKGDGKKLELQAAEGIKIISQGDLSLSAEKNIALKAGGSVSLHSDDGIALHSSEGVSIHSSDLKHNGTNIGNSHVHGGVSPGGSMTGGPN”, the “soluble on expression in E. coli” value is “not soluble”.

As for “MSLEDYCTPGAFELERLFWKGSPQYTHVNEVWPKLYIGDEATALDRYRLQKAGFTHVLNAAHGRWNVDTGPDYYRDMDIQYHGVEADDLPTFDLSVFFYPAAAFIDRALSDDHSRKRDVRVRNLCRKAGPLGLLVAEGKGKILVHCVMGRSRSATLVLAYLMIHKDMTLVDAIQQVAKNRCVLPNRGFLKQLRELDKQLVQQRRRSEGHHHHHH”, the “soluble on expression in E. coli” value was “soluble”.

In the case of “MLRNGRLFGHRVETGFPDLPILEVSLRTGVRVRDMDNLKRKQVMSQKEKYKRAVKGDIAYNMMRMWQGAVGPVPEDGLVSPAYVVVKPYAEANSTYFSYLFRTAAYMQEVNKFSRGIVADRNRLYWESFKQMPSLVPPRPEQDQIVTYLRTQDAHIACFIRAKRDLIALLTEQKLRIIDHAVTRGLDASVKLKPSDIEWLGEVPAHWEVKRLKFLAGNITSQTTTKADDEIYLALEHVQSWTGVARPLGGEVEFASTVKRFVADDVLFGKLRPYLAKVTRVVCAGVCVSEFLVLRSRQELILPAYLEQLLRCKRVIDLISSSTAGAKMPRADWNFIGNVRLPIPRKDEQEAILSHIGRETKDLDETIARAEDEIKLIREYRDRLIADAVTGQVDLRGWQPGPDDVVSDDDLAALGDDDAGSSDDEEADA”, the “soluble on expression in E. coli” value is on record as “not soluble”.

In the case of “MGSDKIHHHHHHMKNIKIFPKDWLQLHPYKQSTPVDSYYTGIANRIYDIMEKTELVNSFEGEETKQICIRMAAYFEDVISGMGLWRAFILTHKELYGKYLPFYTPDDHYYDDEVNLEDVRFLLWHYTQQYHGYRKGTFVSPDNPANESTGMLIYDLFCKEWTTAPENTRMAKLFALDTRYERQEDYDRLLQWFHYESYILPESARELSDFAHDRWKEQPDLNQEQLNNLLVNSHGMMAYTSKTSLLGLTSPQWLAKILPAEHPDHAVFQNTADESVATLPDDMLEENRQQYETFRKAAGDKLLLYFDKTEDAQTFITETSGLIPAENFHLPEDWQGKKLAIYATPEEGAQVITRDVELIKDENNPFYDANRAAKQALSFFIVKHCSVYFLPELVKRGMLADAQTKSLISPERGKAIIQENWKFLARYFIREYPNR”, the “soluble on expression in E. coli” value is “not soluble”.

Regarding “MGSDKIHHHHHHMRVLIINTSERIGGAAVAAGRLMESLKNNGIKAKMLVRDKQTDQISVVGLKGSWLHVWKFMWERIVIWKANRFKKNDLFAVDIANTGTDITSLPEFQQADVIHLHWINQGMLSLNTIRKILTSGKPVVWTMHDMWPCTGICHYARECKNYEQECHHCPYIYGGGGKKDLSTRIFRKKKEIYSQASITFVGCSRWLAEKAKVSGLLTGQTVISIPNAINTNLFKPHNKQEARRKCRLPQEGKLILFGSVKITDKRKGIDYLIEACKLLAEKHPEWKESLGVVVFGNQSQQLQDLIPFRVYPLPYIKNEHELVDIYNAVDLFAIPSLEENLPNMVMEAMSCGVPCVGFNTGGIPEMIDHLHNGYVAQRKSSEDLANGIHWVLTEPEYAELSAQACRKAIGNYSESIIAKKYTEVYNKITGKYA”, the “soluble on expression in E. coli” value is given as “not soluble”.

As for “MGSDKIHHHHHHMKSHVRSFKTYIRDEIIKKGGWVNAHAHADRAFTMTPEKIGIYHSSNLQQKWDLVDEVKRTSSVDDYYARFCQSIELMISQGVTAFGTFVDIDPICEDRAIIAAHKAREVYKHDIILKFANQTLKGVIEPTARKWFDIGAEMVDMIGGLPYRDELDYGRGLEAMDILLDKAKSLGIMCHVHVDQFNNPSEKETEQLCDKTIEHGMEGRVVGIHGISIGSHSKEYRYKLYEKMRKAKMMMIACPMAWIDSNRKEDLMPFHNALTPADEMIPEVSLLP”, the “soluble on expression in E. coli” value is given as “not soluble”.

“MGSDKIHHHHHHLLVKRARLIVGNCWYLLHRIPVEIKDNSQYDIKLSDFGLSEFAESAKFDPVLCGTGPYMSGYRLEGVQGYQHSYVDDVWALAVCLFFLLYNEWPFRKRDGNVKDLLGFDPSQMWVPFPQGCRITAKRVGQGLIIENVNWPDASGDFSNYKGYDLLSYVKDQSVLEFSKVGGEIYEFRAGDDVEQINHQMNAALTEHECFIRFPGQEEDRKRRFRNEVLAGIREYWIQSDIEYGSGTRKQDLLESLATGSTEHSILQKLRVLPAYKSARKRSAEQSELGMLSFGLSGILKNSK”: the “soluble on expression in E. coli” value was “not soluble”.

Take “MSLLAYTYIEHGKFELREKPEPKITDARDAIVRVTLGSICTSDLHIKHGSVPRAVPGITVGHEMVGVVEEVGAEVTSVRPGDRVTVNVETFCGECFFCHHGYVNNCTDPNGGWALGCRIDGGQAEYVRVPYADQGLNRIPDTVSDEQALFVGDVLATGFWATRISEITEKDTILLIGAGPTGICTLLCSMLKNPKRIIVCEKSPERIQFVREHYPDVLITTPENCKEFVLQNSDHSGADVVLEVAGTEDSFRMAWDCARPNAIVTIVALYDKPLLFPLPEMYGKNLTFKTGGVDGCDCAEILSLIEEGKIDTTPLITHRCSLNEIEEAYRIFENKLDGVIKVAIVCQTESEGHHHHHH”: the “soluble on expression in E. coli” value is recorded as “soluble”.

In the case of “MAHHHHHHMGNGASVGENRHSQLFQQGYKSLQEGRYTYAEIYYDQAIERHEGHSFWTRLDDLIEWERRDKAGQKGTDAKQKTAYRDGGQEEAAFPEVRKDSLKEENEVNVEMGEAAGVGGSGKIEIPLDSRLADVVDYLVLRADIAESYMAEGRYEEATPHMDFLSSHTRVMLKFLQIARMTKAEESANSSNPLEGSTADAGADNAGGGNRRAHQGFMMVSDVERDSILDCFEQFLRMHWVSAMANSVFIVSERFKKGKSEKKHKKELDTAVVACAKIQEELYNVAKRRARSLSNSVVLSFLEGIMEELDAESSTTSITNERMGTANGKTRTNTLFEEQNNRSTGNRSANEIDMLTDRDECPIKVHLQMVYDRRSLCREVPAPQQAPTLRYITWIDDEIRRVVPGTNYNLEIQCGMVDEKRKKQLQKRSLKFAAQRNCNYNDRVLLGKSFDEENALLLFPVFLIQADVQFELGAATKGINALDIVDKLSTQLYGVGSLERQSIMRSVMESRKRGGSLFMMFED”, the “soluble on expression in E. coli” value is “soluble”.

As to “MGSDKIHHHHHHMKQELALFIKKIIDLPAAEEKKLLAITRVYKVPKGDFYIQIGQIPKKFAFVAKGLFRYVYIDSKGNEFTKNFVPENNFALAYSSMIRHEVSKMAIEALEDSIICEIDYTDWLTLKKGNACWNIFLITILENAFTIKENRERDLLLLDAEQRYETFRQEFPALETRVKQHLIASYLGISPVSLSRIRKKRT”, the “soluble on expression in E. coli” value is recorded as “not soluble”.

Turning to “METSKEFEFRPAKETSRSKSPGGIVGRLSNFARNKARHSLSEKGSNSVGGSGGAGFDKPRKDLLKEFHKCKEAQDQRLDLSSIEITSIPSPIKELTQLTELFLYKNKLTCLPTEIGQLVNLKKLGLSENALTSLPDSLASLESLETLDLRHNKLTEVPSVIYKIGSLETLWLRYNRIVAVDEQIGNLSKLKMLDVRENKIRELPSAIGKLTSLVVCLVSYNHLTRVPEEIGDCHSLTQLDLQHNDLSELPYSIGKLVNLVRIGIRYNKIRCIPSELESCQQLEEFIVESNHLQLLPPNLLTMLPKIHTVNLSRNELTAFPAGGPQQFVSTVTINMEHNQISKIPIGIFSKATRLTKLNLKENELVSLPLDMGSWTSITELNLSTNQLKVLPEDIEKLVNLEILVLSNNQLKKLPNQIGNLNKLRELDLEENELETVPTEIGFLQHLTKLWVQSNKILTLPRSIGNLCSLQDLRLGENNLTAIPEEIGHLDSLKSLYLNDNSSLHNLPFELALCQSLEIMSIENSPLSQIPPEITAGGPSLVIQYLKMQGPYRGVVMNSQ”, the “soluble on expression in E. coli” value is given as “not soluble”.

(Values after the DeepSol protein solubility set.)
